Where a chain is given by its changes, count along the chain named. Read-outs that look alike come from different tables or passages of the source. Values belong to the binder of their own block, whether it stands above or below them.
Key:
Assay in all cases: SPR
FcgRIIb [1] = target: T1, FcgRIIb (human, UniProt P31994)
T1 chain: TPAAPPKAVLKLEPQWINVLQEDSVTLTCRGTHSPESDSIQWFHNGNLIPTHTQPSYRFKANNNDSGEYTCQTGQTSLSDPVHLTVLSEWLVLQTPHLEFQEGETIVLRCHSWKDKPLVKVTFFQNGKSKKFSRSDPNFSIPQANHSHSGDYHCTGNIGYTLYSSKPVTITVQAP

FcgRIIIa F [2] = target: T2, FcgRIIIa F (human, UniProt P08637)
FcgRIIb [3] = target: T1, FcgRIIb
FcgRIIa R = target: T3, FcgRIIa R (human, UniProt P12318)
T3 chain: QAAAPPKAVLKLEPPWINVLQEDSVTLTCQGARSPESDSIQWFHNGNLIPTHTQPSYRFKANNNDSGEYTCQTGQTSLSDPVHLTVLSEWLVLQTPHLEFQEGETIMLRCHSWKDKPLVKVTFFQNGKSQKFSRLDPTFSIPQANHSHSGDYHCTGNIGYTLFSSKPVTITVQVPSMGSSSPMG

FcgRIIa H = target: T4, FcgRIIa H (human, UniProt P12318)
T4 chain: T3 chain with R134H

FcgRIIIa V = FcgRIIIa V (human, UniProt P08637)
FcgRIa = target: T5, FcgRIa (human, UniProt P12314)
T5 chain: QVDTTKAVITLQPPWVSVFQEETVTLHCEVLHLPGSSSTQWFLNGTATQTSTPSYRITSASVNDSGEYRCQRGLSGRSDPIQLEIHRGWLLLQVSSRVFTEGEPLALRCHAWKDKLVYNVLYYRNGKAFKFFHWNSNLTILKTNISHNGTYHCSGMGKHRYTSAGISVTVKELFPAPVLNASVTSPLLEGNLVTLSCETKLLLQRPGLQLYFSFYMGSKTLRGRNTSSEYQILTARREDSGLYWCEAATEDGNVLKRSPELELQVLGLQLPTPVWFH

FcgRIIIa F [4] = target: T2, FcgRIIIa F; remark: listed apart in the source

Chain of FcgRIIIa V (P08637 17-208 F176V): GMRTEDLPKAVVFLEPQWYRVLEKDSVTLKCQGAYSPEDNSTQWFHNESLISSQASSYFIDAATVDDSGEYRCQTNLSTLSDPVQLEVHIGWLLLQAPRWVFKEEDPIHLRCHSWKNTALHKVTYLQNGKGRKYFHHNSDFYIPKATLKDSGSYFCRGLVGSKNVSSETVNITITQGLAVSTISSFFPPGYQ
T2 sequence (P08637 17-208): as the sequence (P08637 17-208 F176V) above, with V160F counted along it

B2: GpH7-A5/GpH7-B3/GpL16-k0 (antibody)
chain 1: not shown
chain 2: not shown
chain 3: DIVMTQSPLSLPVTPGEPASISCQASESLVHSNRNTYLHWYLQKPGQSPQLLIYKVSNRFSGVPDRFSGSGSGTDFTLKISRVEAEDVGVYYCSQNTHVPPTFGQGTKVEIERTVAAPSVFIFPPSDEQLKSGTASVVCLLNNFYPREAKVQWKVDNALQSGNSQESVTEQDSKDSTYSLSSTLTLSKADYEKHKVYACEVTHQGLSSPVTKSFNRGEC
Kd (FcgRIIb [1]): 3100 nM
Kd (FcgRIIIa F [2]): 1600 nM

B7: H240-Kn178/H240-Hl068/L73-k0 (antibody)
chain 1: QDQLVQSGAEVKKPGASVKVSCKASGFNIKDTYIQWVRQAPGQGLEWMGRIDPLRKQTKYREKFEGRVTITADTSTNTAYMELSSLRSEDTAVYYCVRSGREFDYWGQGTLVTVSSASTKGPSVFPLAPSSKSTSGGTAALGCLVKDYFPEPVTVSWNSGALTSGVHTFPAVLQSSGLYSLSSVVTVPSSSLGTQTYICNVNHKPSNTKVDKKVEPKSCDKTHTCPPCPAPEYYWGPMVFLFPPKPKDTLMISRTPEVTCVVVDVSDEDPEVKFNWYVDGVEVHNAKTKPREEQYNATYRVVSVLTVLHQDWLNGKEYKCKVSNKDLPAPIEYTISKAKGQPREPQVCTLPPSRDELTKNQVSLWCLVKGFYPSDIAVEWESNGQPENNYKTTPPVLDSDGSFFLYSKLTVDKSRWQQGNVFSCSVMHEALHNHYTQKSLSLSP
chain 2: QDQLVQSGAEVKKPGASVKVSCKASGFNIKDTYIQWVRQAPGQGLEWMGRIDPLRKQTKYREKFEGRVTITADTSTNTAYMELSSLRSEDTAVYYCVRSGREFDYWGQGTLVTVSSASTKGPSVFPLAPSSKSTSGGTAALGCLVKDYFPEPVTVSWNSGALTSGVHTFPAVLQSSGLYSLSSVVTVPSSSLGTQTYICNVNHKPSNTKVDKKVEPKSCDKTHTCPPCPAPELLGGPSVFLFPPKPKDTLMISRTPEVTCVVVDVSHEEPEVKFNWYVDGVEVHNAKTKPREEQYNSTYRVVSVLTVLHQDWLNGKEYKCKVSNDALPKPIEETISKAKGQPREPQVYTLPPSRCELTKNQVSLSCAVKGFYPSDIAVEWESNGQPENNYKTTPPVLDSDGSFFLVSKLTVDKSRWQQGNVFSCSVMHEALHNHYTQKSLSLSP
chain 3: DIQMTQSPSSLSASVGDRVTITCRASQDIHKYIAWYQQKPGQAPRLLIQYTSTLQPGVPSRFSGSGSGTDYTFTISSLQPEDIATYYCLQYEQLRTFGGGTKVEIKRTVAAPSVFIFPPSDEQLKSGTASVVCLLNNFYPREAKVQWKVDNALQSGNSQESVTEQDSKDSTYSLSSTLTLSKADYEKHKVYACEVTHQGLSSPVTKSFNRGEC
Kd (FcgRIIb [3]): 110 nM
Kd (FcgRIIa R): 26 nM
Kd (FcgRIIa H): 65 nM
Kd (FcgRIIIa V): 0.19 nM
Kd (FcgRIa): 0.23 nM
Kd (FcgRIIIa F [4]): 1.4 nM

B8: H240-Kn138/H240-Hl068/L73-k0 (antibody)
chain 1: B7 chain 1 with L327W, Y333K
chain 2: B7 chain 2
chain 3: B7 chain 3
Kd (FcgRIIb [3]): 130 nM
Kd (FcgRIIa R): 19 nM
Kd (FcgRIIa H): 25 nM
Kd (FcgRIIIa V): 0.43 nM
Kd (FcgRIa): 0.16 nM
Kd (FcgRIIIa F [4]): 3.7 nM

B9: H240-Kn120/H240-Hl170/L73-k0 (antibody)
chain 1: B7 chain 1 with Y333K
chain 2: B7 chain 2 with L327A
chain 3: B7 chain 3
Kd (FcgRIIb [3]): 67 nM
Kd (FcgRIIa R): 8.6 nM
Kd (FcgRIIa H): 18 nM
Kd (FcgRIIIa V): 0.93 nM
Kd (FcgRIa): 0.19 nM
Kd (FcgRIIIa F [4]): 3.9 nM

B10: H240-Kn120/H240-Hl182/L73-k0 (antibody)
chain 1: B7 chain 1 with Y333K
chain 2: B7 chain 2 with A230H
chain 3: B7 chain 3
Kd (FcgRIIb [3]): 240 nM
Kd (FcgRIIa R): 40 nM
Kd (FcgRIIa H): 77 nM
Kd (FcgRIIIa V): 0.29 nM
Kd (FcgRIa): 0.18 nM
Kd (FcgRIIIa F [4]): 3.1 nM

B11: H240-Kn120/H240-Hl150/L73-k0 (antibody)
chain 1: B7 chain 1 with Y333K
chain 2: B7 chain 2 with I331T
chain 3: B7 chain 3
Kd (FcgRIIb [3]): 98 nM
Kd (FcgRIIa R): 20 nM
Kd (FcgRIIa H): 35 nM
Kd (FcgRIIIa V): 0.57 nM
Kd (FcgRIa): 0.39 nM
Kd (FcgRIIIa F [4]): 3 nM

B12: H240-Kn149/H240-Hl068/L73-k0 (antibody)
chain 1: B7 chain 1 with L327W, Y333L
chain 2: B7 chain 2
chain 3: B7 chain 3
Kd (FcgRIIb [3]): 150 nM
Kd (FcgRIIa R): 19 nM
Kd (FcgRIIa H): 26 nM
Kd (FcgRIIIa V): 0.32 nM
Kd (FcgRIa): 0.38 nM
Kd (FcgRIIIa F [4]): 1.5 nM

Results, then the binder that gave them:

Kd (FcgRIIb [1]): 4500 nM
Kd (FcgRIIIa F [2]): 320 nM
B1: GpH7-TA7/GpH7-B3/GpL16-k0 (antibody)
chain 1: QVQLVQSGAEVKKPGASVTVSCKASGYTFTDYEMHWIRQPPGEGLEWIGAIDPKTGDTAYSESFQDRVTLTADKSTSTAYMELSSLTSEDTAVYYCTRFYSYTYWGQGTLVTVSSASTKGPSVFPLAPSSKSTSGGTAALGCLVKDYFPEPVTVSWNSGALTSGVHTFPAVLQSSGLYSLSSVVTVPSSSLGTQTYICNVNHKPSNTKVDKKVEPKSCDKTHTCPPCPAPEYLWGPSVFLFPPKPKDTLMISRTPEVTCVVVDVSHEDPEVKFNWYVDGVEVHNAKTKPREEQYNATYRVVSVLTVLHQDWLNGKEYKCKVSNKALPAPIEKTISKAKGQPREPQVYTLPPSRKELTKNQVSLTCLVKGFYPSDIAVEWESNGQPENNYKTTPPVLDSDGSFFLYSKLTVDKSRWQQGNVFSCSVMHEALHNRYTQKSLSLSP
chain 2: not shown
chain 3: B2 chain 3

Kd (FcgRIIb [1]): 18000 nM
Kd (FcgRIIIa F [2]): 3300 nM
B3: GpH7-TA7/GpH7-TA45/GpL16-k0 (antibody)
chain 1: B1 chain 1
chain 2: B1 chain 1 with K354D, R433H, K437E
chain 3: B2 chain 3

Kd (FcgRIIb [1]): 610 nM
Kd (FcgRIIIa F [2]): 6.2 nM
B4: GpH7-A57/GpH7-B78/GpL16-k0 (antibody)
chain 1: B1 chain 1 with Y232L, W234G, S237D, A296S, A328L, I330E
chain 2: B1 chain 1 with Y232L, W234G, S237D, A296S, A328L, I330E, K354D, R433H, K437E
chain 3: B2 chain 3

Kd (FcgRIIb [1]): 3100 nM
Kd (FcgRIIIa F [2]): 1200 nM
B5: GpH7-G1d/GpL16-k0 (antibody)
chain 1: not shown
chain 2: B2 chain 3

Kd (FcgRIIb [1]): 430 nM
Kd (FcgRIIIa F [2]): 54 nM
B6: GpH7-A5/GpH7-B78/GpL16-k0 (antibody)
chain 1: not shown
chain 2: B1 chain 1 with Y232L, W234G, S237D, A296S, A328L, I330E, K354D, R433H, K437E
chain 3: B2 chain 3
